In the RNAGym collection of RNA variant scans (doi:10.1073/pnas.2313332121):
Variants at the floor of the assay were thinned out.

B1: TPR 5TU (parent)
chain: GGAUCUUCUCGAUCUAACAAAAAAGACAAAUCUGCCACAAAGCUUGAGAGCAUCUUCGGAUGCAGAGGCGGCAGCCUUCGGUGGCGCGAUAGCGCCAACGUUCUCAACUAUGACACGCAAAACGCGUGCUCCGUUGAAUGGAGUUUAUCAUG

Variants of: B1
Assay: polymerase ribozyme fitness, log enrichment relative to wild type (log ratio); higher = more active; in vitro selection for triplet polymerase activity
In short: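 A single round of triplicate in vitro selection, including frozen incubation at −7 °C, was applied to PCR-built, transcribed mutant libraries of each subunit of a heterodimeric triplet polymerase ribozyme. Illumina sequencing of input and output libraries retained genotypes with ≥10 input reads and ≥1 read per output. Fitness is the base-2 logarithm of genotype enrichment divided by wild-type enrichment, from inverse-variance-weighted replicate averages.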

Compared with GGAUCUUCUCGAUCUAACAAAAAAGACAAAUCUGCCACAAAGCUUGAGAGCAUCUUCGGAUGCAGAGGCGGCAGCCUUCGGUGGCGCGAUAGCCCCAACGAUCUGAACUAUGACACGCAAAACGCGUGCUCCGUUGAAUGCAGUUUAUCAUG, GGAUCUUCUCGAUCUAACAAAAAAGACAAAUCUGCCACAAAGCUUGAGAGCAUCUUCGGAUGCAGAGGCGGCAGCCUUCGGUGGCGCGAUAGCGUCAACGUUCUCAACUAUGACACGCAAAACGUGUGCUCCGUUGAAUGGAGUUUAUCAUG is higher in “polymerase ribozyme fitness (log ratio)” value: no more than -4.2 for the first, -0.278 for the second.

First: GGAUCUUCUCGAUCUAACAAAAAAGACAAAUCUGCCACAAAGCUUGAGAGCAUCUUCGGAUGCAGAGGCGGCAGCCUUCGGUGGCGCGAUAGCGAGAACGUUCUCAACUAUGACACGCAAAACGCGUGCUCCGUUGAAUGGAGCUUAUCAUG
Second: GGAUCUUCUCGAUCUAACAAAAAAGACAAAUCUGCCACAAAGCUUGAGAGCAUCUUCGGAUGCAGAGGCGGCAGCCUUCGGUGGCGCGAUAGCCCUAACGUUCUCAACUAUGACACGCAAAACGCGUGCUCCGUUGAAUGGAGUUUAUCAUG
The “polymerase ribozyme fitness (log ratio)” value of the first is lower: -2.34 for the first, -1.08 for the second.

Compared with GGAUCUUCUCGAUCUAACAAAAAAGACAAAUCUGCCACAAAGCUUGAGAGCAUCUUCGGAUGCAGAGGCGGCAGCCUUCGGUGGCGCGAUAGCGUCAAGGUUCUCAACUAUGACACACACAGCGCGUGCUCCGUUGAAUGGAGUUUAUCAUG, GGAUCUUCUCGAUCUAACAAAAAAGACAAAUCUGCCACAAAGCUUGAGAGCAUCUUCGGAUGCAGAGGCGGCAGCCUUCGGUGGCGCGAUAGCGUCAACGUUCUCAACUAUGACAGGCAAAACGCGUGCUCCGUUGAAUGGAGUUUAUCAUG is higher in “polymerase ribozyme fitness (log ratio)” value: -1.97 for the first, 0.0419 for the second.

Going from GGAUCUUCUCGAUCUAACAAAAAAGACAAAUCUGCCACAAAGCUUGAGAGCAUCUUCGGAUGCAGAGGCGGCAGCCUUCGGUGGCGCGAUAGCGUCAACUUUCUCAACUAUGACACGCAAAACGCGUGCUCCGUUGAAUGGAGUUUAGCAUG to GGAUCUUCUCGAUCUAACAAAAAAGACAAAUCUGCCACAAAGCUUGAGAGCAUCUUCGGAUGCAGAGGCGGCAGCCUUCGGUGGCGCGAUAGCGACAACUUUCUCGACUGUGACACGCAAAACGCGUGCUCCGUUGAAUGGUGUUUAUCAUG, the “polymerase ribozyme fitness (log ratio)” value rises from no more than -4.2 to -4.01.

Going from GGAUCUUCUCGAUCUAACAAAAAAGACAAAUCUGCCACAAAGCUUGAGAGCAUCUUCGGAUGCAGAGGCGGCAGCCUUCGGUGGCGCGAUAGCGUCAACGUUCUCAACUAUGACAGGCAAAACGCGUGCUCCGUUGAGUGGAGUUUAUCAUG to GGAUCUUCUCGAUCUAACAAAAAAGACAAAUCUGCCACAAAGCUUGAGAGCAUCUUCGGAUGCAGAGGCGGCAGCCUUCGGUGGCGCGAUAGCCCCAACGUUCUCAACUAUGACACGCAAAACGCGUGCUCCGUUGAAUGGAAUUUAUCAUG, the “polymerase ribozyme fitness (log ratio)” value rises from -3.58 to -1.86.

Going from GGAUCUUCUCGAUCUAACAAAAAAGACAAAUCUGCCACAAAGCUUGAGAGCAUCUUCGGAUGCAGAGGCGGCAGCCUUCGGUGGCGCGAUAGCGUUAACGUUCUCAACUAUGACACGCAAAACGCGUGCUCCGUUGAAUGGAGUUUAUCAUG to GGAUCUUCUCGAUCUAACAAAAAAGACAAAUCUGCCACAAAGCUUGAGAGCAUCUUCGGAUGCAGAGGCGGCAGCCUUCGGUGGCGCGAUAGCGUGAACGUUCUCAACUAUGACACGCAAAACGCGUGCUCCGUUGAAUGGAGUUUAUCAUG, the “polymerase ribozyme fitness (log ratio)” value rises from -1.18 to -0.577.

First: GGAUCUUCUCGAUCUAACAAAAAAGACAAAUCUGCCACAAAGCUUGAGAGCAUCUUCGGAUGCAGAGGCGGCAGCCUUCGGUGGCGCGAUAGCGUCAACGUUCUCAACUAUGACACGCAAAACGCGUGCUCGGUUGAAUGGAGUUUAUCUUG
Second: GGAUCUUCUCGAUCUAACAAAAAAGACAAAUCUGCCACAAAGCUUGAGAGCAUCUUCGGAUGCAGAGGCGGCAGCCUUCGGUGGCGCGAUAGCGUCAACGUUCUCAACUAUGACACGCAAAACGCGUGCUCCGUUGAAUGGAGUUUAUUAUG
The “polymerase ribozyme fitness (log ratio)” value of the first is lower: -3.31 for the first, -0.647 for the second.

Going from GGAUCUUCUCGAUCUAACAAAAAAGACAAAUCUGCCACAAAGCUUGAGAGCAUCUUCGGAUGCAGAGGCGGCAGCCUUCGGUGGCGCGAUAGCGUCAACGUUCUCAACUAUGACACGCAAAACGCGUGCUCCGUUGAAUGGAGUUUAUGAUG to GGAUCUUCUCGAUCUAACAAAAAAGACAAAUCUGCCACAAAGCUUGAGAGCAUCUUCGGAUGCAGAGGCGGCAGCCUUCGGUGGCGCGAUAGCCCUAACGUUCUCAACUAUCACACGCAAAACGCGUGCUCCGUUGAAUGGAGUUCAUCAUG, the “polymerase ribozyme fitness (log ratio)” value falls from -3.59 to no more than -4.2.

Going from GGAUCUUCUCGAUCUAACAAAAAAGACAAAUCUGCCACAAAGCUUGAGAGCAUCUUCGGAUGCAGAGGCGGCAGCCUUCGGUGGCGCGAUAGCCCUAACGUUCUCAACUAUGUCUCGCAAAACGCGUGCCCCGUUGGAUGGAGUUUAUCAUG to GGAUCUUCUCGAUCUAACAAAAAAGACAAAUCUGCCACAAAGCUUGAGAGCAUCUUCGGAUGCAGAGGCGGCAGCCUUCGGUGGCGCGAUAGCCCCAACGUUCUCAACUAUGACACGCAAAACGCGUGCUCUGUUGAAUGGAGUUUAUCAUG, the “polymerase ribozyme fitness (log ratio)” value rises from no more than -4.2 to -1.26.

First: GGAUCUUCUCGAUCUAACAAAAAAGACAAAUCUGCCACAAAGCUUGAGAGCAUCUUCGGAUGCAGAGGCGGCAGCCUUCGGUGGCGCGAUAGCUCCAUCGUUCUCAACUAUGACACGCAAAACGCGUGCUCCGUUGAAUGAAGUUUAUCAUG
Second: GGAUCUUCUCGAUCUAACAAAAAAGACAAAUCUGCCACAAAGCUUGAGAGCAUCUUCGGAUGCAGAGGCGGCAGCCUUCGGUGGCGCGAUAGCUCCAACGUUCUCAACUAUGACACGCAAAACGCGUGCUCCGUUGAAUGGAAUUUAUCAUG
The “polymerase ribozyme fitness (log ratio)” value of the first is higher: 0.104 for the first, -1.67 for the second.

Going from GGAUCUUCUCGAUCUAACAAAAAAGACAAAUCUGCCACAAAGCUUGAGAGCAUCUUCGGAUGCAGAGGCGGCAGCCUUCGGUGGCGCGAUAGCGCAAACGUUCUCAACUAUGUCACGCAAAACGCGUGCUCCGUUGAAUGGAGAUUAUCAUG to GGAUCUUCUCGAUCUAACAAAAAAGACAAAUCUGCCACAAAGCUUGAGAGCAUCUUCGGAUGCAGAGGCGGCAGCCUUCGGUGGCGCGAUAGCCCCAACGUUUUCAACUAUGACACGCCAAACGAGUGCUCCGUUGAAUGGAGUUUAUCAUG, the “polymerase ribozyme fitness (log ratio)” value rises from -2.58 to -2.

Compared with GGAUCUUCUCGAUCUAACAAAAAAGACAAAUCUGCCACAAAGCUUGAGAGCAUCUUCGGAUGCAGAGGCGGCAGCCUUCGGUGGCGCGAUAGCUCCAACGUUCUCAACUAUGACACGCAAAACGCGUGCUCCGUUGAAUGUAGUUUAUCAUG, GGAUCUUCUCGAUCUAACAAAAAAGACAAAUCUGCCACAAAGCUUGAGAGCAUCUUCGGAUGCAGAGGCGGCAGCCUUCGGUGGCGCGAUAGCCCCAACGUUCUCAACUAUGACACGCAAAACGCGUGCUUCGUGGAAUGGAGUUUAUCAUA is lower in “polymerase ribozyme fitness (log ratio)” value: -0.082 for the first, -3.32 for the second.

GGAUCUUCUCGAUCUAACAAAAAAGACAAAUCUGCCACAAAGCUUGAGAGCAUCUUCGGAUGCAGAGGCGGCAGCCUUCGGUGGCGCGAUAGCCCCAAUGUUCUCAACUAUGACACGCAAAACGCGUGCUCCGUUGAAUGGAGUUUAUCAUG and GGAUCUUCUCGAUCUAACAAAAAAGACAAAUCUGCCACAAAGCUUGAGAGCAUCUUCGGAUGCAGAGGCGGCAGCCUUCGGUGGCGCGAUAGCGUCAACGCUCUCAACUAUGACACGCAAAACGCGUGCUCCGUUGAAUGGAGUUUAUCAUG are within 0.2 log units of each other in “polymerase ribozyme fitness (log ratio)” value: -0.0105 for the first, -0.173 for the second.

Compared with GGAUCUUCUCGAUCUAACAAAAAAGACAAAUCUGCCACAAAGCUUGAGAGCAUCUUCGGAUGCAGAGGCGGCAGCCUUCGGUGGCGCGAUAGCGAGAACGUUCUCAACUAUGACACGCAAAACGCGUGCUCCGUUGAAUGGAGUUUAUCAUG, GGAUCUUCUCGAUCUAACAAAAAAGACAAAUCUGCCACAAAGCUUGAGAGCAUCUUCGGAUGCAGAGGCGGCAGCCUUCGGUGGCGCGAUAGCCCCAACGUUCUCAACUAUGACACGCAAAACGCGUGCUCCGUUGAAUAGAGUUUAUCAUG is lower in “polymerase ribozyme fitness (log ratio)” value: -2.25 for the first, -3.95 for the second.

Going from GGAUCUUCUCGAUCUAACAAAAAAGACAAAUCUGCCACAAAGCUUGAGAGCAUCUUCGGAUGCAGAGGCGGCAGCCUUCGGUGGCGCGAUAGCGCAAACGUUCUCAUCUAUGACACGCAAAACGCGUGCUCCGUUGAAUGGAGUUUAUCAUG to GGAUCUUCUCGAUCUAACAAAAAAGACAAAUCUGCCACAAAGCUUGAGAGCAUCUUCGGAUGCAGAGGCGGCAGCCUUCGGUGGCGCGAUAGCGCAAACGUUCUCAGCUAUGACACGCAAAACGCGUGCUCCGUUGAAUGGAGUUUAUCAUG, the “polymerase ribozyme fitness (log ratio)” value falls from -2.87 to -4.2.

Going from GGAUCUUCUCGAUCUAACAAAAAAGACAAAUCUGCCACAAAGCUUGAGAGCAUCUUCGGAUGCAGAGGCGGCAGCCUUCGGUGGCGCGAUAGCGCAUACGUUCUCAACUAUGACACGUAAAACGCGUGCUCCGUUGAAUGGAGUUUAUCAUG to GGAUCUUCUCGAUCUAACAAAAAAGACAAAUCUGCCACAAAGCUUGAGAGCAUCUUCGGAUGCAGAGGCGGCAGCCUUCGGUGGCGCGAUAGCCCCAACGUUUUCAACUAUGACACGCAAAACGCGUGCUCCGUUGAAUGGAGUUUAUCAUG, the “polymerase ribozyme fitness (log ratio)” value rises from -0.741 to -0.0253.

Going from GGAUCUUCUCGAUCUAACAAAAAAGACAAAUCUGCCACAAAGCUUGAGAGCAUCUUCGGAUGCAGAGGCGGCAGCCUUCGGUGGCGCGAUAGCGUCAACGUUCUCAACUAUGACACGCAAACCGCGUGCGCCGUUGAAAGGAGUUUAUCAUG to GGAUCUUCUCGAUCUAACAAAAAAGACAAAUCUGCCACAAAGCUUGAGAGCAUCUUCGGAUGCAGAGGCGGCAGCCUUCGGUGGCGCGAUAGCGUCAACGUUCUCAACUAUGACACGCAAAACGCGUGCUAUGUUGAAUGGAGUUUAUCAUG, the “polymerase ribozyme fitness (log ratio)” value rises from -4.01 to -3.79.

Going from GGAUCUUCUCGAUCUAACAAAAAAGACAAAUCUGCCACAAAGCUUGAGAGCAUCUUCGGAUGCAGAGGCGGCAGCCUUCGGUGGCGCGAUAGCGACAUCGUUCGCCACUAUGACACGCAAAACGCGUGCUCCGUUGAAUGGAGUUUAUCAUG to GGAUCUUCUCGAUCUAACAAAAAAGACAAAUCUGCCACAAAGCUUGAGAGCAUCUUCGGAUGCAGAGGCGGCAGCCUUCGGUGGCGCGAUAGCUCCAACGUUCUCAACUAUGACACGCAAAACGCGUGCUCCGUUGAAUGGGGUUUAUCAUG, the “polymerase ribozyme fitness (log ratio)” value rises from no more than -4.2 to -3.45.

Going from GGAUCUUCUCGAUCUAACAAAAAAGACAAAUCUGCCACAAAGCUUGAGAGCAUCUUCGGAUGCAGAGGCGGCAGCCUUCGGUGGCGCGAUAGCGACAACGUUCUCAACUAUGACACGCAAAACGCGUGCUCCGUUGAAUGGAGGUUAUCAUG to GGAUCUUCUCGAUCUAACAAAAAAGACAAAUCUGCCACAAAGCUUGAGAGCAUCUUCGGAUGCAGAGGCGGCAGCCUUCGGUGGCGCGAUAGCCCCAACGUUCUCAACUAUGACACGCAAAACGCGAGCUCCGUUGAAUGGAGUUUAUCAUG, the “polymerase ribozyme fitness (log ratio)” value falls from 0.303 to -3.75.
